Experimental data reported in the supplement of paper PMC10598134.
± gives the standard deviation.

Test: collision cross section of unmodified peptide (TIMS, N2, iRT-aligned); higher = larger / more extended gas-phase ion
Description: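 Unmodified synthetic counterpart peptides (ProteomeTools / JPT), analysed by nanoLC-TIMS-QTOF (dda-PASEF). 1/K0 was aligned run-wise to spiked iRT peptides and converted to CCS in N2 (Mason-Schamp). Values are the mean of 1-3 technical replicates for the most abundant feature at each charge state. The same unmodified peptide is repeated across rows and is averaged.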

Substance | collision cross section (charge state: 2) [Å²] | collision cross section (charge state: 3) [Å²]
FGVEAFSDCLR | 384.72 ± 0.67 | –
FGYVDFESAEDLEK | 428.91 ± 0.24 | –
FHYQDQEFLK | 406.29 ± 0.68 | 457.95 ± 1.7
FIHQQPQSSSPVYGSSAK | – | 514.9 ± 0.21
FLQEFYQDDELGK | 424.29 ± 0.5 | –
FLQEFYQDDELGKK | 448.73 ± 2.1 | 492.87 ± 3.2
FNALFAQGNYSEAAK | 435.05 ± 0.49 | –
FPGVGVLPGVPTGAGVK | 421.12 ± 0.5 | 509.46 ± 1.2
FPGVGVLPGVPTGAGVKPK | 467.47 ± 1.8 | 560.63 ± 0.35
FRSGNYR | 328.09 ± 0.7 | 402.54 ± 6.1
FSAYIKNSNPALNDNLEK | 493.15 ± 3.7 | 521.97 ± 3.2
FSHSVQNSERGK | 402.29 ± 0.72 | 464.33 ± 2.2
FSPPSSSLQPGK | 371.43 ± 0.67 | –
FSYTSQHSDYGQR | – | 485.4 ± 1
FTEYETQVK | 363.82 ± 1.3 | –
FVDSKVGEFSGANK | 415.64 ± 1.8 | –
FYTEDSPGLK | 352.82 ± 0.55 | –
GADFLVTEVENGGSLGSKK | 494.06 ± 6.8 | 535.68 ± 1.1
GAEKTEVAEPR | 369.12 ± 1.5 | 445.67 ± 5
GAPGGRGAQLSVPSPAR | 428.52 | 492.17 ± 0.93
GAPGPQGPPGPPGK | 357.97 ± 0.58 | –
GARLPGPVSSAR | 359.36 ± 0.74 | 465.32 ± 9.3
GATVTRGVPPPPTVR | 421.15 | 511.54 ± 2
GDAGEPGR | 283.75 ± 1.9 | –
GDAGEPGRPGSPGK | 357.76 ± 0.58 | 449.7 ± 1.2
GDIGETGVPGAEGPR | 381.04 ± 0.92 | –
GDKGDAGEPGR | 331.44 ± 0.79 | 419.58 ± 2

Substance | collision cross section (charge state: 2) [Å²] | collision cross section (charge state: 3) [Å²]
GDNGSVGEPGPK | 342.97 ± 0.86 | –
GDPGLIGPK | 313.62 ± 1.5 | –
GDQGEPGPSGNPGK | 342.01 ± 0.23 | –
GDRGEIGPPGPR | 366.43 ± 0.3 | 425.03 ± 1.2
GDTGLPGPQGIPGGVGSPGR | 429.26 ± 1 | 497.26 ± 35
GDYDLNAVR | 340.54 ± 0.15 | –
GEAGPTGPQGEPGVR | 385.03 ± 0.4 | –
GEAGPTGPQGEPGVRGIR | – | 495.75 ± 4.4
GEGGFGGRGGGR | 340.19 ± 0.38 | 426.14 ± 4
GEIGPPGPR | 309.77 ± 3.8 | –
GEKGDPGLIGPK | 373.44 ± 1.5 | 449.05 ± 1.4
GEKGLPGLAGDHGEFGEK | – | 564.38 ± 1.3
GEKGNPGVGTQGPR | 370.3 ± 0.92 | 437.26 ± 1.3
GEPGIPAIPGIR | 347.87 ± 0.23 | –
GEPGIPAIPGIRGPK | 382.37 ± 0.58 | 515.69 ± 0.34
GEPGLPGHPGK | 338.84 ± 0.58 | –
GEPGQGLRGLQGPPGK | 417.18 ± 1.2 | 443.35 ± 0.85
GEQGEPGAPGIR | 347.53 ± 0.79 | –
GEQGEPGAPGIRTGIQGLK | 452.7 ± 0.99 | 505.34 ± 2.1
GERGFPGYPGPK | 366.2 ± 1.3 | 460.83 ± 0.86
GERGPPGPPGK | 325.96 ± 0.79 | 437.43 ± 1.2
GERGPPGPPGR | 331 ± 1.5 | 441.17 ± 1.4
GERGVPGER | 324.16 ± 0.79 | 410.66 ± 1.3
GETASKLQSEISR | 404.79 ± 2.8 | 463.95 ± 4.6
GEVGAGAGPGAQAGPSAKR | 436.7 ± 2.1 | 469.26 ± 5.9
GEVQVSDKER | 363.87 ± 0.37 | 439.27 ± 4.5
GEYFGEK | 311.09 ± 0.97 | –

Substance | collision cross section (charge state: 2) [Å²] | collision cross section (charge state: 3) [Å²]
GFALVGVGSEASSKK | 433.33 ± 1.5 | 506.74 ± 2.3
GFCFITYTDEEPVKK | 461.17 ± 2.5 | 509.46 ± 2.1
GFGRGGAESHTFK | 384.5 ± 0.2 | 473.03 ± 1.3
GFLQPPPLRQPR | 397.31 ± 0.59 | 451.27 ± 5.3
GFPGAPGLPGLK | 357.61 ± 0.4 | –
GFPGAPGLPGLKGHR | – | 475.59 ± 1.2
GFPGIQGRK | 338.49 ± 1.5 | 406.74 ± 2
GGFQNRGGGSGGGGNYR | 412.29 | 474.43 ± 1.4
GGGDRGGFGPGK | 338.46 ± 2.1 | 414.71 ± 5.6
GGGFGAHGRGR | 350.63 ± 2.6 | 420.87 ± 5.1
GGGGGGGGGAPRGR | 341.22 ± 1.4 | 426.09 ± 5.4
GGGGGRGGLHDFR | 368.29 ± 0.36 | 457.27 ± 2.8
GGGYGGDRGGYGGDR | 380.24 | 463.21 ± 0.23
GGNFGGRGGYGGGGGGSR | 404.35 ± 1.4 | 464.41 ± 2.6
GGPGAPGAPGPK | 323.76 ± 0.58 | –
GGPGAPGAPGPKGESGDYK | 431.57 ± 1 | 489.8 ± 6.1
GGPGGELPRGPQAGLGPR | 431.54 | 491.33 ± 3.4
GGPGSTLSFVGKR | 395.98 ± 0.53 | 456.87 ± 1.5
GGQGPPGPQGPIGYPGPR | 419.74 ± 1 | 520.51 ± 0.87
GGRGTPGK | 284.56 ± 17 | –
GGSAGGRGFFR | 360.79 ± 0.54 | 432.59 ± 6.7
GGSGGRGVSVSSAR | 376.75 ± 1.3 | 456.24 ± 1.8
GHPGPPGPPGEQGLPGLAGK | 440.68 ± 1.2 | 497.21 ± 14
GHYTIGK | 315.37 ± 1.9 | –
GIGRGTVQALHATGAR | 428.55 | 501.79 ± 0.73
GITGKPGPK | 312.13 ± 0.57 | –
